Test results from the DeepSol protein solubility set.

Assay: soluble on expression in E. coli; label from the status in PepcDB or PDB records

Row | Sequence | soluble on expression in E. coli
1 | MGSDKIHHHHHHMDVVDELIKLHEEHVSGLLRLCGQAGWPDYGEQELKLLVQQGRFFGYQNVSGDIISCIGLFLFGRLTSIGLVIVDKEYQRLGLGRRMVNACITQTDENTAIRLCATKEGLPLYEKAGFHTAGSVRKYSCHSFQPYTKKLDAELTSFREQDFHDLTAADLAAFGGDRSNLLQQLISASCECIIARNQDGQLIGYGLSVQTPANLKFGPIIAPSSDVAAQIITRLAAGKQGPMRIDIPSEHTSLHDSLIEMGFHKDDEPPILFYQKKAPIQNGHLYALISQALG | not soluble
2 | MGSDKIHHHHHHMKKLYILAIAIAVTTFSCKKNKEDEPAPSGSEQAKVVENYANIVYATYDDALITAKNLRAKAADFVASPSEAGLEEVRAAYIASRTPYIQSEAFRFYSGPIDQDLGGGLTIESSINSWPLEEVYIDYVVGDANAGIINDVAHFPTIDKNVILENNQKEGAGENSVSSGYHAVEFLLWGQDLSETGPGDRKYTDYLVNSDDATNLNQARRGQYLLACIDLIIDNLQTLKEAWKSGNASNYRAGFIADPKGSIGNFLKGVIGYADDELSVERMQVALDTEGDAERQEQEQSCFSDQTYNDIILGQKGIKNVYVGEYVRIDGTIVSGMSVSDLVKAADPKLDSTVRAKIYDTDIKVAAIHAPFDNEILTANTAGTIRVQNAINALHVEAAQYKNAANKIGYLY | not soluble
3 | VSYVSVLPATLATAATEVARIGSALSLASAVAAAQTSAVQAAAADEVSAAIAALFSAHGRDFQALSARAAAFHHEFVQALAAGAGSYAVAEIAAASPLQSLIDVFNAPIQAATGRPLIGNGANGQPGTGAPGGPAGG | soluble
4 | MSLTQQITLIKDKILSDNYFTLHNITYDLTRKDGEVIRHKREVYDRGNGATILLYNTKKKTVVLIRQFRVATWVNGNESGQLIESCAGLLDNDEPEVCIRKEAIEETGYEVGEVRKLFELYMSPGGVTELIHFFIAEYSDNQRANAGGGVEDEDIEVLELPFSQALEMIKTGEIRDGKTVLLLNYLQTSHLMDEGGSHHHHHH | soluble
5 | MTTLSHVEALCALEQPYRADAECDRLFDAAMRELVDYHCEHSPGYRRWLEQNGFTPERLAGLSDWSQLPPIFANYFKRRLLLSTSGEDALELTSSGTTGQKSRMRYDERSIGAAQRMVDRIFDHYGWNTPQQPCNYLLLSYEPAGAITLGTAYTDQFLCKYAPVKRAVYALRHNGKGNEFDPFGAIRALQEFAAEGLPVRIFGFPAFLWFALERMRDMGLPPLALHPESLVFLGGGWKTHADQAIPKAELYRRLGEQLGLPDARCRDGYGSVEHPVPYVECTNHRFHVPSWARAWARDTATLARLPYGEAGFLHLVSPYITSSPAHSMLLSDLAVLQLAERCGCGLATDWFELLGRAGTSKSRSCAMAASELIKESLEHHHHHH | soluble
6 | EFKHILVGVDDSDDAQLAFRYAINRAKSDGAKLTIVSILEQDNMNVYEAMSKDFVHGQRKDLEEHVQQYQKLARDFGVTDVNAVVDEGDPGETIVKTVIPALKPDLLVIGSVAKHGVRKYFGSQAAYMAKHAPISVLVIR | not soluble
7 | MTSILNPVIRKEYSELKRPDLRGKFICASCGQHFQHNASLNRHRRLLHGNEHTCMMCDRKLNAKETIRDHMRNEHNLFQVFTCGCCNWSFSSKRQLSEHTKCIQGTGAPGDTIPIAKSCNAPGSLIQSTIQGTPPVVKTGRKRGGSLSSSSSVSTSISSRDVSGSPPPTEEEAERKVLFDNAVDTILQSKFFTYQQITEVDTWIKIIENANTLADTLQRINKTKKIKAEMPADKDVKRFKLEVE | not soluble
8 | QKKDTSNHFHVFVGDLSPEITTEDIKAAFAPFGRISDARVVKDMATGKSKGYGFVSFFNKWDAENAIQQMGGQWLGGRQIRTNWATRKPPAPKSTYESNTKQ | soluble
9 | MRLVIARCSVDYIGRLEAHLPMADRLLMVKADGSVSIHADDRAYKPLNWMTPPCTLTETTHEESETGESIPLWIVENKKGEQLRITIEALHSDMYYDLGEDPGLQKDGVEAHLQELLAEHIETLGDGYSLVRREYPTPIGPVDILCRDDKGGSVAVEIKRRGGIDGVEQLSRYLELLNRDDLLAPVAGVFAAQHIKPQARTLAEDRGIRCVTLDYDSLRGIESTELRLF | not soluble
10 | MSTTHNSLPASSDKHHDGHGEASLYHDSHGHAWSGNPNYTLTQLIPELRINLGSSLDIGSGEGADAAWLASLGWKAVGLEPSGVAVERSRELSSNATFIQGKVPQDLDRCGGPFDLVTGFYIPIAGEDAWRAIARQVADGGYLIYVHHNLDELRAKGHPLLGRDDLLMPFDAADLAPSGAWEIVVHETRHREIVGGHGHHHHLDDVLVLKRRKK | not soluble
11 | MCQLDVASIGDIASYRLSPISKLRYLRHTESPKSPKSSIAIPRKRYKRYRQISRMPKNHFWKNGDISYTETHIGDIFNMPYFQISIFPISPSLSAINTTIARHEFSRRQKSQNAYFGQTHILLFTAAYSPFLEHHHHHH | soluble
12 | MGSDKIHHHHHHMIHVGTCGFCEKQDKYFQDFSTVEIQQTFYKILQESTLKKWREKAPEGFVFSIKAFQGVTHPPNSPTWRRSNVKPSKNVGLLRPTNEVIHYWKITLNEAKILNARFILIQLPRSFKESEESFSNAERFFSIIDRGEFEIAVELRGWSERGIKKFVREFDVIDVVDPMVRVPLHGGGVNYYRLHGKYENGRIIYSYKYSDEELLKIRERVLSFHVEESYVYFNNSNMCEDAQRFKQLIMKF | not soluble
13 | MKRILLLGGITEALAIARKLGPEHIYSLAGVGRVPTDLACQLKVGGYGGAEGMAQYIRDQGVDLLLDATHPYAAQISRNAALAARIAGIPCWALRRTAWQPGPDDDWREVADWSALVTALAPFKRPLFTLGREPLQHLNEIPKHQFWTLRALDSYPGNDRCEVIGARGPFVLEDERQLFEQRNIDVLISKNSGSSSTEPKLDVARERGLPVLILKRPQLPDVDRILWSVDEVLGVLGLAETSPKPR | not soluble
14 | MGSSHHHHHHSSGLVPRGSGDYDYLIKLLALGDSGVGKTTFLYRYTDNKFNPKFITTVGIDFREKRVVYNAQGPNGSSGKAFKVHLQLWDTAGQERFRSLTTAFFRDAMGFLLMFDLTSQQSFLNVRNWMSQLQANAYCENPDIVLIGNKADLPDQREVNERQARELADKYGIPYFETSAATGQNVEKAVETLLDLIMKRMEQCVEKTQIPDTVNGG | soluble
15 | MGSDKIHHHHHHVVDVAHAVKPMSVPQRIEQASRHDLLVLSSQSGPRQSAWSSLTSALGGQDIDDHAGMPCRRVMLMLAEHEAELLRRECQLIPIVGADAVAQSVTLTKKAVPGNWCAWGVLDRDAAQQHLDAKIVSMGARLRDEPAFGLMFSCLARGPHFYDGVDQDIALLKRYYPSMPVIGFYGNGEIAPLNGRNVLWQNSVVLGLFTAES | not soluble
16 | QRRLEVKGVVNNITVYDDFAHHPTAITATIDALRAKVGQQRILAVLEPRSNTMKMGVHKHELATSLQDADSVFIYQPPTIEWQVSEVLANLAQPAISADDVDELVMRIVQQAKPNDHILIMSNGAFGGIHQKLLTALANAFLMPS | not soluble
17 | MPTVSVKWQKKVLDGIEIDVSLPPYVFKAQLYDLTGVPPERQKIMVKGGLLKDDGDWAAIGVKDGQKLMMMGTADEIVKAPEKAIVFAEDLPEEALATNLGYSAGLVNLGNTCYMNSTVQCLKSVPELKSALSNYSLAARSNDVDQTSHMLTVATRELFGELDRSVLRKKYPQFSQLQNGMHMQQDAEECWTQLLYTLSQSLKAPTSSEGADAVKALFGVNLQSRIKLGVLDNVTDSTVISKCTLHCQESGEESSETESVYSLKCHISHEVNHLHEGLKHGLKGELEKTSPALGRTALYVKESLIDSLPRYLTVQFVRFFWKRESNQKAKILRKVDYPLVLDIFDLCSEDLRKKLEAPRQKLREEEGKKLGLQTSAKSGSKDSDVKMTDAEASANGSGESSTVNPQEGTSSEKETHMTGIYDLVAVLTHKGRSADSGHYVAWVKQESGKWIQYDDDNPSMQREEDITKLSGGGDWHMAYITMYKARFVSM | soluble
18 | MFKSLSQLFRPRVEALGLEIGASALKLVEVSGNPPALKALASRPTPPGLLMEGMVAEPAALAQEIKELLLEARTRKRYVVTALSNLAVILRPIQVPKMPLKEMEEAVRWEAERYIPFPIDEVVLDFAPLTPLSEVQEGEQVQVMVAAARQEAVAGVLEALRGAGLVPVVLDVKPFAGLYPLEARLAEEPDRVFLALDIGAESTSLVLLRGDKPLAVRVLTLSGKDFTEAIARSFNLDLLAAEEVKRTYGMATLPTEDEELLLDFDAERERYSPGRIYDAIRPVLVELTQELRRSLEFFRIQLEEASPEVGYLLGGGSKLRGLASLLTDTLGVNFEPVNPWEAVAVDPKRFESEQLQEIGPEFAVALGLALRGVEPLD | soluble
19 | MAGEAGQPSEPLNLLAGMAAAPWDYDFFQALRRIECESPQLPRLGHSVRLADDPLRLGQKPDCTFAPSTLASVSQAGTAAVPRLDQFFFGLTGPNGPLPLHLTEYARERQRNVNDATFKRFMDVFHHRLLTLFYRAWAEARPEISHDRIDDDYWSARLAALSGRGMPSLRGREPLADTARYYYTGHLAAQTRYPDGLRVILAEYFEVPVAVEEYVGQWLELPERSRLGVDSTSLGMDVCLGTHVWDRQHKFRLRLGPLDLDQYQRFLPDGDHFVELAAWVAEYLGEELDWDVNLVLQRHEVPPLGLQGGGRLGFNTWLGDPGQDARDLLLARQYATARPHEHKEKEHE | not soluble
20 | MSRPPPPRAASGAPLRPATVLGTMEMGRRMDASASAASVRAFLERGHSELDTAFMYCDGQSENILGGLGLGLGSGDCTVKIATKANPWEGKSLKPDSIRSQLETSLKRLQCPRVDLFYLHAPDHSTPVEETLCACHQLHQEGKFVELGLSNYASWEVAEICTLCKSNGWILPTVYQGMYNATTRQVEAELLPCLRHFGLRFYAYNPLAGGLLTGKYKYEDKDGKQPVGRFFGNNWAETYRNRFWKEHHFEAIALVEKALQTTYGTNAPRMTSAALRWMYHHSQLQGTRGDAVILGMSSLEQLEQNLAATEEGPLEPAVVEAFDQAWNMVAHECPNYFR | soluble
21 | AHHHHHHGSKLMEVSPLFPCIFLRRVNRFVGLVRIKERIERALITNTGRLNEFMIPGRIGYCTPKAGGKTRYILLGFEDHGKIAIIDTRLQGKAFEKIIEKELLPELEGCRIIKREPRVGESRLDYLLECSKGEIFVETKSAVLREGEYAMYPDCPSVRGQRHIKELIKLARDGKRAMIVFIGALPNVSKFKPYKKGDPKIAELLKEALEAGVEIRALGLHMELSGEIIYRGELGVEI | soluble
22 | LSITTPEQRIEKAKGETAYLPCKFTLSPEDQGPLDIEWLISPSDNQIVDQVIILYSGDKIYDNYYPDLKGRVHFTSNDVKSGDASINVTNLQLSDIGTYQCKVKKAPGVANKKFLLTVLVKPSGTRCFVDGSEEIGNDFKLKCEPKEGSLPLQFEWQKLSDSQTMPTPWLAEMTSPVISVKNASSEYSGTYSCTVQNRVGSDQCMLRLDVVPPS | soluble
